Consider three molecules from patent publication US20110262445A1 (CEPHALON AUSTRALIA, published 2011).

Assay [1] has as its target T1, human IL-23 (human, UniProt P29460 23-328; Q9NPF7 20-189).
T1 construct: Recombinant (Ebioscience); HIS-tagged in flow cytometry, biotinylated in some assays; also called hIL-23; rhIL-23
T1 sequence 1: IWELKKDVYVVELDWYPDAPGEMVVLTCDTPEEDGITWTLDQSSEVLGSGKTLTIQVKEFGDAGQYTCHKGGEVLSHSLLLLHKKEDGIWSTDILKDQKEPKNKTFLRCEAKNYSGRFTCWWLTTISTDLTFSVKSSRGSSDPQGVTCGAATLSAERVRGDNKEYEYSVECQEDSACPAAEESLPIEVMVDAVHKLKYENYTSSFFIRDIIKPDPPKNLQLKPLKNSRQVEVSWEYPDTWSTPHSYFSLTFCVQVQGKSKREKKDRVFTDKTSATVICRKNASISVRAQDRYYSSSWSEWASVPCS
T1 sequence 2: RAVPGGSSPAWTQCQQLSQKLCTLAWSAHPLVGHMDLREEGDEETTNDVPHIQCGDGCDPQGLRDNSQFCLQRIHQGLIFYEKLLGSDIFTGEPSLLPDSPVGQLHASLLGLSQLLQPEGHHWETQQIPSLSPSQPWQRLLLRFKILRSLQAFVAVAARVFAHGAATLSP
In words: SPR, purified scFv captured via FLAG. The method, then: (§1) A number of the scFv variants presented in TABLE 4 were selected for full characterization of binding kinetics, encompassing a broad range of mutation profiles and binding affinities. Large-scale protein expressions were carried out for each scFv. The expressed scFvs were purified as monomeric proteins and tested for binding against IL-12 and IL-23 by SPR (TABLE 5).
(§2) Purified scFvs were subjected to full kinetic characterization using a BIAcore T100 biosensor (GE Healthcare). Approximately 10,000 RU of the proprietry FLAG-specific capture molecule was immobilized on a CM5 Series S Sensor chip, using standard amine coupling chemistry in flow cells (FC) 1 and FC2 (or alternatively FC3 and FC4) of the BIAcore T100 Biosensor. The running buffer used was HBS-EP+ (BIAcore) and interactions measured at 30° C. or 35° C. to promote differentiation of scFvs with very similiar kd values. Peak purified FLAG-tagged scFvs (prepared as described in the previous paragraph) were diluted to 10 nM in running buffer, and captured on FC2 at a flow rate of 10 μl/min in order to capture 50 RU of scFv (typically 60 sec was sufficient to capture this level of tagged scFv). After an appropriate stabilization period, the target, IL-12 or IL-23, were passed over FC1 and FC2 at a flow rate of 60 μl/min at concentrations ranging from 81 nM to 0.13 nM (using a five-fold dilution of IL-12) and 81 nM to 1 nM (using a three-fold dilution of IL-23). The contact time for association was 180 sec and dissociation measured for 10 mins for the highest concentration and 300 sec for all other concentrations in the series. The sensorgram data from FC2 was subtracted from FC1 and a buffer only control. The curves were fitted using a 1:1 Langmuir equation to generate the kₐ, kd and KD values.
A general note: In SPR one partner is held on a chip, and binding of the other changes the refractive index at the surface.

In assay [2] the target is T2, human IL-12 (human, UniProt P29460 23-328; P29459 23-219).
T2 construct: Recombinant (Peprotech); FLAG-tagged IL-12 in the flow cytometry assays, biotinylated in the IL-12Rβ2 assay; also called hIL-12
T2 sequence 1: T1 sequence 1
T2 sequence 2: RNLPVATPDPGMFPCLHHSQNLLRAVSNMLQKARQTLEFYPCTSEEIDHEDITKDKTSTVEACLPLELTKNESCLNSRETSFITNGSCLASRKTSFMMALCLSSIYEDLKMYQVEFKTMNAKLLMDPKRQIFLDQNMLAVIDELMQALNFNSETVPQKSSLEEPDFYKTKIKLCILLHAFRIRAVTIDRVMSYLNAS
Put plainly: SPR, purified scFv captured via FLAG. The method, then: as §1, §2

Assay [3] has as its target T1, human IL-23. In words: SPR, purified scFv captured via FLAG; LOD estimated 1 × 10^-5 s^-1. The method, then:
as §1, §2

The target of assay [4] is T2, human IL-12. In words: SPR, purified scFv.
Assay [5] has as its target T1, human IL-23. Put plainly: SPR screen, crude scFv captured via FLAG. The method, then:
Approximately 6500 individual scFvs recovered from the ribosome display reactions were expressed and screened for binding against IL-23 using a high-throughout SPR assay. The variants were ranked according to the kd and the best variants were sequenced at the nucleic acid level.
High-throughput SPR screening was conducted using a BIAcore A100 biosensor (GE Healthcare). Approximately 10 000 RU of the proprietary FLAG-specific capture molecule was immobilized on a CM5 Series S Sensor chip, using standard amine coupling chemistry on Spots 1 & 5 (outer spots) and 3,000RU to Spots 2 & 4 (inner spots) in each of the four flow cells of the BIAcore A100 Biosensor. The running buffer used was HBS-EP+ (BIAcore) and all interactions measured at 25° C. Crude periplasmic preparations of FLAG-tagged scFvs (prepared as described in the previous paragraph), were diluted two-fold in running buffer before capturing at a flow rate of 5u1/min for 60 sec. Approx. 100RU (on outer spots) and 50RU (on inner spots) of tagged scFv was captured. Following a 2 min stabilization period, IL-23 was passed over all spots of all four flow cells simultaneously at a flow rate of 30u1/min for 120 sec and dissociation monitored for 200 sec. Generated sensorgrams were referenced against the unmodified spot 3 of each flow cell, and fitted using a 1:1 Langmuir equation with R1 set to local to account for varying ligand densities to generate the kₐ, kd and KD values.

Assay [6] concerns the target T1, human IL-23. In words: SPR, IgG. How it is done:
(§3) CU-A6 was converted to Antibody 183, CP-A6 was converted to Antibody 184 and AW-F2 was converted to Antibody 207 by addition of a human heavy chain Fc region (SEQ ID NO: 8) and a constant kappa light chain region (SEQ ID NO: 9). IgG molecules were expressed by co-transfecting the heavy and light chain construct for each antibody into HEK 293E cultures. The expressed IgGs were purified by affinity chromatography and gel exclusion and the resulting monomeric molecules were tested for IL-12 and IL-23 binding by SPR (TABLE 6). All three IgG variants retained binding activity against both analytes with a visible improvement in kd compared to the parental wild-type IgG. Based on this, it is reasonable to expect that scFv variants described in TABLE 4 could be converted to the IgG format and retain improved binding characteristics against IL-12 and IL-23.
(§4) Using a SPR 3000, Protein A was immobilized onto FC1 and FC2 (or alternatively FC3 and FC4) of a CM5 research grade sensor chip using amine coupling, giving approximately […] RU. FC1 was used a blank throughout the experiments. The experiments were run in HBS-P buffer (SPR). At a flow rate of 20 μl/min, 20 μl of 5 μg/mL of antibody was passed over FC2. IL-12, IL-23 or IL-12p40 (Peprotech) were passed over the surface of FC1 and FC2 at concentrations ranging from 66 nM to 2 nM. Regeneration of the surface was performed using 10 mM Glycine, pH 1.0. The sensorgram data from FC2 was subtracted from FC1 and a buffer only control. The curves were fitted using a 1:1 Langmuir equation to generate the kd, ka and KD values. All curves were fitted with a χ² of less then 2.0 where possible.

Assay [7] has as its target T2, human IL-12. In words: SPR, IgG. The method, then:
as §3, §4

The target in assay [8] is T1, human IL-23. In words: SPR, IgG; LOD estimated 1 × 10^-5 s^-1.
The target of assay [9] is T1, human IL-23. Put plainly: ELISA, SPR. (In an ELISA, binding on a coated surface is turned into a signal by an enzyme label.)
Assay [10] has as its target T2, human IL-12. Put plainly: ELISA, SPR.

Some results are limits rather than exact numbers.

B1: scFv AW-F2 (scFv)
scFv: QVQLVQSGAEVKKPGASVKVSCKASGYTFTDYYLHWVRQAPGQGLEWMGWIDPENGDTESAPKFQGRVTMTTDTSTSTAYMELRSLRSDDTAVYYCNANKELRYFDVWGQGTMVTVSSGGGGSGGGGSGGGGSEIVMTQSPATLSVSPGERATLSCRASQSISINLHWYQQKPGQAPRLLIYFASQSISGIPARFSGSGSGTEFTLTISSLQSEDFAVYYCQQSNSFPLTFGGGTKVEIKR
notes: scFv-80 variant: VH Y59S; not shown: proprietary C-terminal FLAG tag
As a reminder, the kon is a measure of how fast the partners come together. As a reminder, the Kd is the concentration at which binding is half-saturated. High values mean a looser complex, low ones a tighter complex. A word on the koff: it is the first-order rate constant of dissociation. Regarding B1, the kon was 350000 M⁻¹ s⁻¹ in assay [1] and 2.2e+06 M⁻¹ s⁻¹ in assay [2]. This molecule also had a Kd in [2] of 0.046 nM. For the same molecule, the koff in assay [2] is 0.0001 s⁻¹; in assay [3], under 1e-05 s⁻¹; in assay [5] it was 0.00025 s⁻¹. Moreover, the “fold affinity improvement compared to parental scFv-80” value in assay [4] turned out to be 5 fold.

B2: Antibody 183 (antibody, human IgG1, kappa, V domains shown)
VH: QVQLVQSGAEVKKPGASVKVSCKASGYTLTDYYLHWVRQAPGQGLEWMGWIDPENGDTEYAPKFQGRVTMTTDTSTSTAYMELRSLRSDDTAVYYCNANKELRYFDVWGQGAMVTVSS
VL: EIVMTQSPATLSVSPGERATLSCRASQSISINLHWYQQKPGQAPRLLIYFASQSISGIPARFFGSGSGTEFTLTISSLQSEDFAVYYCQQSNSFPLTFGGGTKVEIKR
notes: also called CU-A6 as IgG
In assay [6], B2 had a Kd of at most 0.0027 nM and a kon of 400000 M⁻¹ s⁻¹. In assay [7], this molecule came in with a Kd of 0.065 nM, a koff of 0.00027 s⁻¹ and a kon of 4.1e+06 M⁻¹ s⁻¹. The koff in assay [8] was under 1e-05 s⁻¹.

B3: Antibody 50 (antibody, human IgG1, kappa, V domains shown)
VH: EVQLQQSGADLVRSGASIKLSCTASGFNIKDYYLHWVKQRPEQGLEWIGWIDPENGDTEYAPKFQGKATMTADTSSNTAYLQLSSLTSEDTAVYYCNANKELRYFDVWGAGTTVTVSS
VL: DIVLTQSPATLSVTPGDSVSLSCRASQSISINLHWYQQKSHESPRLLIKFASQSISGIPSRFSGYGSGTDFTLSINSVETEDFGRYFCQQSNSFPLTFGAGTKLELKR
notes: Optimized chimeric antibody (W94F, M34L, C95N)
Regarding B3, the binding result in assay [9] and in assay [10] was “binds” each time.
